Substrate in data set [1]: CCCCCCCCCCCCCCCCCC(=O)OC[C@H](COP(=O)([O-])OCC[N+](C)(C)C)OC(=O)CCCCCCCCCCCCCCCCC
The experiment in a line: radiochemical PC:MLCL transacylase assay, TLC and scintillation counting, Lineweaver-Burk. The class given is biochemical, Mus musculus. Conditions: labelled compound (3H), acyl donor 0-200 μM, acceptor MLCL 100 μM (methods text: 40 μM final), pH 8, 37 °C, 2 mM DTT, 0.1% Nonidet P-40, enzyme on anti-HA beads, apparent. From the text: (§1) radiochemical PC:MLCL transacylase assay, TLC and scintillation counting, Lineweaver-Burk on PLAAT1

Substrate in data set [2]: CCCCCCCC/C=C\CCCCCCCC(=O)OC[C@H](COP(=O)([O-])OCC[N+](C)(C)C)OC(=O)CCCCCCC/C=C\CCCCCCCC
Described as above. It counts as biochemical, Mus musculus. Conditions: labelled compound (3H), acyl donor 0-200 μM, acceptor MLCL 100 μM (methods text: 40 μM final), pH 8, 37 °C, 2 mM DTT, 0.1% Nonidet P-40, enzyme on anti-HA beads, apparent.
Description: as §1

One may read the Km as the concentration of substrate that gives half-maximal velocity. One may read the Vmax as the rate approached at saturating substrate.

B1: PLAAT1 (Mus musculus) (protein)
chain: MAVNDCFSLTYPHNPHPGDLIEVFRPCYQHWALYLGDGYVINIAPIDGIRSSFTSAKSVFSTKALVKMQLLKDVVGNDTYRINNKYDTTYPPLPVEEVIQRSEFPIGQEVAYDLLVNNCEHFVTLLRYGEGVSEQANRAIGTIGLVAAGIDIFTFLGLFPKRQRTKY
notes: complete coding region; C-terminal 6xHis, HA-tagged; adenoviral expression in HEK-293; immunopurified on anti-HA beads
On to B1, for which, in data set [1], the Km is 126 µM and the Vmax worked out at 1.61 µmol/min/mg. Further, in data set [2], the Km came out at 16 µM and the Vmax was 0.61 µmol/min/mg.

For the origin of these results see paper PMC9224490, “PLAAT1 Exhibits Phosphatidylcholine:Monolysocardiolipin Transacylase Activity” (International Journal of Molecular Sciences, 2022).
